Experimental findings from PMC11481384 (2024) are described below.

B1: 6-mer peptide (peptide)
chain: NVESGE
modifications: Sequence shown only in Fig. 4B; limits taken as the NxESGE motif (UniProt Keap1-interaction region 77-82). Synthetic peptide, termini not stated
B2: ED 12-mer peptide (peptide)
chain: ESGEEELASKLD
modifications: Limits inferred from the name: first residue E, last residue D, 12 residues, containing ESGE; by analogy IE 12-mer = 71-82 (PDB 8IN0) and the 20-mer is probably 71-90. Synthetic peptide, termini not stated

The target of this experiment is Keap1 Kelch domain (amino acid residues 309 to 624) (human, UniProt Q14145 309-624). Nature of the experiment: ITC.
Chain of Keap1 Kelch domain (amino acid residues 309 to 624) (Q14145 309-624): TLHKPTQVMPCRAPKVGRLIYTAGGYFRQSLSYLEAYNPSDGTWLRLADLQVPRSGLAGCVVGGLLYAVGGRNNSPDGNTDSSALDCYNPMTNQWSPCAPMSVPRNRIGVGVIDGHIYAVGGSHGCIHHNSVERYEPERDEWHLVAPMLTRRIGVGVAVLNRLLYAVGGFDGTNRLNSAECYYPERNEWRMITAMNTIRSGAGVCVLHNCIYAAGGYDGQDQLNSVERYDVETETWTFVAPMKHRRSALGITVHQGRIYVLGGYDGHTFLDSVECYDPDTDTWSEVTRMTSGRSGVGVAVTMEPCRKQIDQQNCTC
The molecule B1 came in with a Kd of 133 µM.
As for B2, the Kd was found to be 14 µM.
Consider INVRKRNVESGE [PGAM5 IE 12‐mer peptide], for which the affinity, expressed as Kd, was 63.6 µM.
